2 substances from paper PMC9233197, “Neuropeptide signalling shapes feeding and reproductive behaviours in male Caenorhabditis elegans” (Life Science Alliance, 2022) can be followed below.

No end group written: not given here.

The assay deals with T1, NPR-22 (Caenorhabditis elegans, UniProt Q59E83).
T1 construct: host or cells: CHO-K1 cells (CHO/mtAEQ/Gα16) transiently transfected with NPR-22 cDNA in pcDNA3.1 TOPO
T1 sequence (Q59E83 1-434): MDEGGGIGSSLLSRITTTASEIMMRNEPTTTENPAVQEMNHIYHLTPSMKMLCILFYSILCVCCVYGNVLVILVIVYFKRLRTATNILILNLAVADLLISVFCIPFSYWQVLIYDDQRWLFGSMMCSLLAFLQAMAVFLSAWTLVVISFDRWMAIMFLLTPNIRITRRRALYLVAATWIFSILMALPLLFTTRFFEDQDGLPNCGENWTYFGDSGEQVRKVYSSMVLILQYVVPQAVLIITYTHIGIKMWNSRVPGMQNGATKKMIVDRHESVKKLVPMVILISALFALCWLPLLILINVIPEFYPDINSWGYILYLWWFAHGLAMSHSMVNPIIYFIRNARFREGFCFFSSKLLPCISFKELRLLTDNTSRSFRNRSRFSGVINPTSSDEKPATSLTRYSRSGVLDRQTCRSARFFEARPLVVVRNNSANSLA
Kind of assay: In vitro GPCR activation assay (aequorin bioluminescence, CHO/mtAEQ/Gα16 cells transfected with NPR-22). The assay is classed as cell-based. To be noted: dose–response, n = 6–8 trials. The text has this: Figure 1. Neuropeptide lury-1 and its receptor npr-22 are expressed in different cells in the two sexes of C. elegans. […] In males, there is additional expression in cells in the tail (white arrows). Dashed outlines indicate worm body and position of pharyngeal bulbs in the head. Scale bar = 10 μm. (B) Identification of lury-1–expressing male tail neurons using NeuroPAL ([Tekieli et al, 2021]; [Yemini et al, 2021]). The lury-1 reporter line used here is JN2443 (Plury-1::Venus, unc-122p::mCherry). […] DX1–DX3 are annotated in the image. Nuclear fluorescence in other neurons is in pseudocolour as in [Yemini et al (2021)]. Scale bar = 10 μm. […] The corresponding EC50 values (M) for each peptide are as indicated. Line represents non-linear regression fit of a variable slope line using three parameters. n = 6–8 trials. […] Expression in male copulatory apparatus is also observed. Dashed outlines indicate worm body and position of pharyngeal bulbs in the head. Scale bar = 10 μm. […]
Cell-based activation assays were performed as described ([Beets et al, 2012]). […] Cells (25,000 cells/well) were exposed to synthetic peptides in BSA medium, and aequorin bioluminescence was recorded for 30 s on a MicroBeta LumiJet luminometer (PerkinElmer) in quadruplicate. […] EC50 values were calculated from dose–response curves, constructed using a nonlinear regression analysis, with sigmoidal dose–response equation (Prism 9.0).

Consider “LURY-1-2: peptide encoded by the LURY-1 precursor (luqin RYamide) of C. elegans; synthetic peptide in the assay (AVLPRY; ends and bridges not checked; UniProt Q9XW71 38-43, looked up)”, for which the “activation of the receptor NPR-22 in vitro (in words)” value is “activate the receptor NPR-22 in vitro”.

On to “LURY-1-1: peptide encoded by the LURY-1 precursor (luqin RYamide) of C. elegans; synthetic peptide in the assay (PALLSRY; ends and bridges not checked; UniProt Q9XW71 29-35, looked up)”, for which the “activation of the receptor NPR-22 in vitro (in words)” value was “activate the receptor NPR-22 in vitro”.
